From patent publication US20220235136A1, “METHODS AND COMPOSITIONS FOR TREATING A DISEASE OR DISORDER” (YALE UNIVERSITY, priority 2019, published 2022) come the findings set out here.

The target in assay [1] is CD141. The assay is described as follows: flow cytometry, HEK293T cells transfected with CD141 stained with IGFBP7-Ig; dashed = transfectant, solid = WT 293T; histograms overlie. (In general: A flow cytometer gives signals particle by particle.)
For assay [2], the target named is CD93 on cells in Example 20 (transfected HEK293T cells, FIG. 28A; CHO cells stably expressing CD93, FIG. 28B); species not stated. The assay is described as follows: flow cytometry, CHO cells stably expressing CD93 stained with IGFBP7-Ig (dashed) or Control (solid), no competitor.
Chain of CD93 on cells in Example 20 (transfected HEK293T cells, FIG. 28A; CHO cells stably expressing CD93, FIG. 28B); species not stated (Q9NPY3 22-652): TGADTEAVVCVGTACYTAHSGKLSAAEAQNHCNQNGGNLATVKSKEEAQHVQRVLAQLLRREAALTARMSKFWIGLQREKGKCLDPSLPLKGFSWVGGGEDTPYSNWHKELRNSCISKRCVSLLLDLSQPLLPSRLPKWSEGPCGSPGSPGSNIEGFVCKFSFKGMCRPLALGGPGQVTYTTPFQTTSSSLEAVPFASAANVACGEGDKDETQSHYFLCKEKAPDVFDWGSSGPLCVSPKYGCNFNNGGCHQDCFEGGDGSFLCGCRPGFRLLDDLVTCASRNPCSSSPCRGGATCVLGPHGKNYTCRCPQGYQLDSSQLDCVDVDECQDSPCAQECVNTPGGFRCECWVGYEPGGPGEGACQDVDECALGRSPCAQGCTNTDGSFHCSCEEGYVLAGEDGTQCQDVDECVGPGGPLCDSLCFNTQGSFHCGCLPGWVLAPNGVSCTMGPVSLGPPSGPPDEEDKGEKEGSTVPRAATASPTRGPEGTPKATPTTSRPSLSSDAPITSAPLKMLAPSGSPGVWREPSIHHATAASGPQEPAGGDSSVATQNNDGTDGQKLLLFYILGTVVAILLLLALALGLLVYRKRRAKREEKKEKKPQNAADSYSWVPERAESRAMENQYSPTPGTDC
Assay [3] shares this target. The assay is described as follows: flow cytometry, CHO cells stably expressing CD93 stained with IGFBP7-Ig (dashed) or Control (solid) in the presence of MMRN2 (panel '+MMRN2', form of the MMRN2 not stated); bar chart of MFI beside it marked ns against 'None'.
In assay [4] the target is CLEC14A on transfected HEK293T cells. The assay is described as follows: flow cytometry, HEK293T cells transfected with CLEC14A stained with IGFBP7-Ig; dashed = transfectant, solid = WT 293T; histograms nearly overlie; the text tells this pair as not binding.
Chain of CLEC14A on transfected HEK293T cells (Q86T13 22-490): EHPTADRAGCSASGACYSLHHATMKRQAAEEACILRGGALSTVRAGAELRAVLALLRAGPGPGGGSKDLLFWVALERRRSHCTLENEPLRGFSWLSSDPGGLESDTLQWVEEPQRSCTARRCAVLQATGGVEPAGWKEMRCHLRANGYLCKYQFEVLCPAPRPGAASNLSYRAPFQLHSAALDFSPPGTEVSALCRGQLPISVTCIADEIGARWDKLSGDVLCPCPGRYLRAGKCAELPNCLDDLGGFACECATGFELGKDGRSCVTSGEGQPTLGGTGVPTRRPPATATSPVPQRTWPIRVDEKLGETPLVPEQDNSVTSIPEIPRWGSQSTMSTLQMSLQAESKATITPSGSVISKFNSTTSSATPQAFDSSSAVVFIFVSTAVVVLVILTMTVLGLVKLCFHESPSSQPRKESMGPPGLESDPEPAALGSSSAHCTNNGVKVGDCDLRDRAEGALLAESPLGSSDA
For assay [5], the target named is CD248 on transfected HEK293T cells. The assay is described as follows: flow cytometry, HEK293T cells transfected with CD248 stained with IGFBP7-Ig; dashed = transfectant, solid = WT 293T; histograms overlie; the text tells this pair as not binding.
Chain of CD248 on transfected HEK293T cells (Q9HCU0 18-757): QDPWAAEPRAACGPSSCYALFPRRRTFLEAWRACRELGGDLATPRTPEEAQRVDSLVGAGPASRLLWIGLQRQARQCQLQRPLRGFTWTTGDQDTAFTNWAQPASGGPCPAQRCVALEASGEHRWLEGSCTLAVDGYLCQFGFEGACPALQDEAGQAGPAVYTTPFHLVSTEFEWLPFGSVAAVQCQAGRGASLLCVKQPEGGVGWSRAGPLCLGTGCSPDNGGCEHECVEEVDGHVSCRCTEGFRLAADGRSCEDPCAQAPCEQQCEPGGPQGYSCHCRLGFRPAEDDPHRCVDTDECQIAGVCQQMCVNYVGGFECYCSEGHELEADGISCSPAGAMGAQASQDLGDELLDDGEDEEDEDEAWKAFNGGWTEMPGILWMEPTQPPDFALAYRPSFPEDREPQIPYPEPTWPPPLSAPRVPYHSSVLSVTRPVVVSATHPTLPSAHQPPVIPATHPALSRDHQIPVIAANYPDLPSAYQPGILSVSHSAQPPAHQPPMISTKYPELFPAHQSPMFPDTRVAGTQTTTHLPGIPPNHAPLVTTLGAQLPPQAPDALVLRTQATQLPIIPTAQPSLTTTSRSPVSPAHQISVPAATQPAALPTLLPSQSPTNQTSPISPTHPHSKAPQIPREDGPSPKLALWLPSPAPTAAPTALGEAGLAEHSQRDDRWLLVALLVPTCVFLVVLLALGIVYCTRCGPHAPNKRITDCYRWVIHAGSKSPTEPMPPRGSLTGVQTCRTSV
Assay [6] has as its target CD93 on cells in Example 20 (transfected HEK293T cells, FIG. 28A; CHO cells stably expressing CD93, FIG. 28B); species not stated. The assay can be described thus: flow cytometry, HEK293T cells transfected with CD93 stained with IGFBP7-Ig; dashed = transfectant, solid = WT 293T.
Assay [7] concerns the target CD248 on transfected HEK293T cells. The assay can be described thus: flow cytometry, HEK293T cells transfected with CD248 stained with MMRN2-Ig; dashed = transfectant, solid = WT 293T.
Assay [8] addresses CLEC14A on transfected HEK293T cells. The assay is described as follows: flow cytometry, HEK293T cells transfected with CLEC14A stained with MMRN2-Ig; dashed = transfectant, solid = WT 293T.
For assay [9], the target named is CD93 on cells in Example 20 (transfected HEK293T cells, FIG. 28A; CHO cells stably expressing CD93, FIG. 28B); species not stated. The assay can be described thus: flow cytometry, CHO cells stably expressing CD93 stained with MMRN2-Ig (dashed) or Control (solid) in the presence of IGFBP7-His protein (panel '+IGFBP7'); bar chart of MFI beside it marked ns against 'None'.

The target is the same in assay [10]. The assay is described as follows: flow cytometry, HEK293T cells transfected with CD93 stained with MMRN2-Ig; dashed = transfectant, solid = WT 293T.
Assay [11] has the same target. The assay is described as follows: flow cytometry, CHO cells stably expressing CD93 stained with MMRN2-Ig (dashed) or Control (solid), no competitor.
Assay [12] concerns the target CD141. The assay is described as follows: flow cytometry, HEK293T cells transfected with CD141 stained with MMRN2-Ig; dashed = transfectant, solid = WT 293T; histograms nearly overlie.

Chain of IGFBP7-Ig (Example 20, FIG. 28A and 28E; species not stated) (Fc fusion) (Q16270 27-282): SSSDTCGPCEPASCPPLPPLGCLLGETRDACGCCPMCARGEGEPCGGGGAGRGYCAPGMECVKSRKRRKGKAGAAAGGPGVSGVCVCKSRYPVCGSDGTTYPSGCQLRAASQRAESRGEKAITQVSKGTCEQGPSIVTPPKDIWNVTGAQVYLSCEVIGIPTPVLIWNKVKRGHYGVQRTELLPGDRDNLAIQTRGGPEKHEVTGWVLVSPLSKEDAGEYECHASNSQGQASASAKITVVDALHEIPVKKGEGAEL
Chain of CD141 (P07204 19-575): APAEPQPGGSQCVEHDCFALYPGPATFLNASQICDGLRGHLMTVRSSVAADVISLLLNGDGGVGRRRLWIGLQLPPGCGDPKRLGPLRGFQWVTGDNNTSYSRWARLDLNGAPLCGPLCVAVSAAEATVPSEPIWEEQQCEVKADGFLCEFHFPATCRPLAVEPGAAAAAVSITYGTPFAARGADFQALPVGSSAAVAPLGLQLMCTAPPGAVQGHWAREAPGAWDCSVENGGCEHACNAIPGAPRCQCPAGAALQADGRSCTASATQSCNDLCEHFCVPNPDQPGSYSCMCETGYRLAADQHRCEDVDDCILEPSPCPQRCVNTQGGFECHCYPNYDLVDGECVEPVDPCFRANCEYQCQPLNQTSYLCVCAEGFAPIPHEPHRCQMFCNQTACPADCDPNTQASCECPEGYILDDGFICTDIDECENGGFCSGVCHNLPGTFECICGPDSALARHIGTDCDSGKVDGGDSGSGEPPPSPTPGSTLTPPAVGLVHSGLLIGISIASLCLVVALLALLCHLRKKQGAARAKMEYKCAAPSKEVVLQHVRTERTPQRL

In the case of “IGFBP7-Ig (Example 20, FIG. 28A and 28E; species not stated) (Fc fusion)”, the number printed over the positive gate of the histogram (percent of cells, unit not given) with CD141 [1] is 2.42; in [2], 67; in assay [3] it was 67.2; in [4] it was 5.45; in assay [5], 3.07; in assay [6], 28.2.

For MMRN2-Ig (Fc fusion), the number printed over the positive gate of the histogram (percent of cells, unit not given) amounted to 13.3 in assay [7]; 25.6 in assay [8]; 93.8 in assay [9]; 52.6 in assay [10]; 94.6 in assay [11]; 2.36 with CD141 [12].
